Measurements as given in patent publication US20180360932A1 (OPKO BIOLOGICS, published 2018).
Blank lines part the entries; values can stand above or below the molecule they belong to.

Legend:
[1] = biological target: MOD-5014 (FVIIa-CTP3, activated Factor VII-CTP-CTP-CTP) (human) (UniProt P08709); test: cell-based or functional assay
[2] = biological target: Tissue factor (TF), P13726; test: cell-based or functional assay
Tissue factor (TF), P13726, sequence (P13726 33-295): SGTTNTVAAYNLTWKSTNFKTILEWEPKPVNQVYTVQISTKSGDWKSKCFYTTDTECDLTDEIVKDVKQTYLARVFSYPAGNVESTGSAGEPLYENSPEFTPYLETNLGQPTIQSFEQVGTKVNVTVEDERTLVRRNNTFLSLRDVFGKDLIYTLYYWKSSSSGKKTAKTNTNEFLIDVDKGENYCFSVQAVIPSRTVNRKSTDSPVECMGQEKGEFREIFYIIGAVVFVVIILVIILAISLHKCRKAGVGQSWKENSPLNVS

- sensitivity of FVIIa/TF generation of FXa to TFPI inhibition, relative to MOD-5000 [1]: 124%
Molecule: Tissue factor pathway inhibitor (TFPI) (from UniProt P10646 29-304)

- ETP (TG; MOD-5014 1.25 ug/ml + TF 0.5 pM; run 1) [2]: 264
- ETP (TG; MOD-5014 1.25 ug/ml + TF 1 pM; run 1) [2]: 484
- ETP (TG; MOD-5014 1.25 ug/ml + TF 2.5 pM; run 1) [2]: 1120
- ETP (TG; MOD-5014 1.25 ug/ml + TF 5 pM; run 1) [2]: 1600
- ETP (TG; MOD-5014 2.5 ug/ml + TF 0.5 pM; run 1) [2]: 245
- ETP (TG; MOD-5014 2.5 ug/ml + TF 0.5 pM; run 2) [2]: 317
- ETP (TG; MOD-5014 2.5 ug/ml + TF 1 pM; run 1) [2]: 448
- ETP (TG; MOD-5014 2.5 ug/ml + TF 1 pM; run 2) [2]: 760
- ETP (TG; MOD-5014 2.5 ug/ml + TF 2.5 pM; run 1) [2]: 1030
- ETP (TG; MOD-5014 2.5 ug/ml + TF 2.5 pM; run 2) [2]: 1110
- ETP (TG; MOD-5014 2.5 ug/ml + TF 5 pM; run 1) [2]: 1550
- ETP (TG; MOD-5014 2.5 ug/ml + TF 5 pM; run 2) [2]: 1600
- ETP (TG; MOD-5014 5 ug/ml + TF 0.5 pM; run 1) [2]: 344
- ETP (TG; MOD-5014 5 ug/ml + TF 1 pM; run 1) [2]: 490
- ETP (TG; MOD-5014 5 ug/ml + TF 2.5 pM; run 1) [2]: 982
- ETP (TG; MOD-5014 5 ug/ml + TF 5 pM; run 1) [2]: 1510
- ETP (TG; MOD-5014 10 ug/ml + TF 0.5 pM; run 2) [2]: 460
- ETP (TG; MOD-5014 10 ug/ml + TF 1 pM; run 2) [2]: 754
- ETP (TG; MOD-5014 10 ug/ml + TF 2.5 pM; run 2) [2]: 1060
- ETP (TG; MOD-5014 10 ug/ml + TF 5 pM; run 2) [2]: 1600
- ETP; thrombin generation in severe hemophilia A pooled plasma, MOD-5014 5 ug/kg (FIG. 83), TF 0.5 pM, run #2 [2]: 354
- ETP; thrombin generation in severe hemophilia A pooled plasma, MOD-5014 5 ug/kg (FIG. 83), TF 1 pM, run #2 [2]: 754
- ETP; thrombin generation in severe hemophilia A pooled plasma, MOD-5014 5 ug/kg (FIG. 83), TF 2.5 pM, run #2 [2]: 1010
- ETP; thrombin generation in severe hemophilia A pooled plasma, MOD-5014 5 ug/kg (FIG. 83), TF 5 pM, run #2 [2]: 1530
- Lag time (TG; MOD-5014 1.25 ug/ml + TF 0.5 pM; run 1) [2]: 4.67 min
- Lag time (TG; MOD-5014 1.25 ug/ml + TF 1 pM; run 1) [2]: 2.67 min
- Lag time (TG; MOD-5014 1.25 ug/ml + TF 2.5 pM; run 1) [2]: 2.33 min
- Lag time (TG; MOD-5014 1.25 ug/ml + TF 5 pM; run 1) [2]: 1.33 min
- Lag time (TG; MOD-5014 2.5 ug/ml + TF 0.5 pM; run 1) [2]: 6.67 min
- Lag time (TG; MOD-5014 2.5 ug/ml + TF 1 pM; run 1) [2]: 3 min
- Lag time (TG; MOD-5014 2.5 ug/ml + TF 1 pM; run 2) [2]: 3.33 min
- Lag time (TG; MOD-5014 2.5 ug/ml + TF 2.5 pM; run 1) [2]: 2.63 min
- Lag time (TG; MOD-5014 2.5 ug/ml + TF 2.5 pM; run 2) [2]: 2.67 min
- Lag time (TG; MOD-5014 2.5 ug/ml + TF 5 pM; run 1) [2]: 3.67 min
- Lag time (TG; MOD-5014 2.5 ug/ml + TF 5 pM; run 2) [2]: 1.67 min
- Lag time (TG; MOD-5014 5 ug/ml + TF 0.5 pM; run 1) [2]: 5.67 min
- Lag time (TG; MOD-5014 5 ug/ml + TF 1 pM; run 1) [2]: 3 min
- Lag time (TG; MOD-5014 5 ug/ml + TF 2.5 pM; run 1) [2]: 3 min
- Lag time (TG; MOD-5014 5 ug/ml + TF 5 pM; run 1) [2]: 1.67 min
- Lag time (TG; MOD-5014 10 ug/ml + TF 0.5 pM; run 2) [2]: 8.67 min
- Lag time (TG; MOD-5014 10 ug/ml + TF 2.5 pM; run 2) [2]: 3 min
- Lag time (TG; MOD-5014 10 ug/ml + TF 5 pM; run 2) [2]: 1.67 min
- Lag time; thrombin generation in severe hemophilia A pooled plasma, MOD-5014 5 ug/kg (FIG. 83), TF 0.5 pM, run #2 [2]: 7
- Lag time; thrombin generation in severe hemophilia A pooled plasma, MOD-5014 5 ug/kg (FIG. 83), TF 1 pM, run #2 [2]: 3.67
- Lag time; thrombin generation in severe hemophilia A pooled plasma, MOD-5014 5 ug/kg (FIG. 83), TF 2.5 pM, run #2 [2]: 2.67
- Lag time; thrombin generation in severe hemophilia A pooled plasma, MOD-5014 5 ug/kg (FIG. 83), TF 5 pM, run #2 [2]: 2
- Peak (TG; MOD-5014 1.25 ug/ml + TF 0.5 pM; run 1) [2]: 9.04
- Peak (TG; MOD-5014 1.25 ug/ml + TF 1 pM; run 1) [2]: 27.4
- Peak (TG; MOD-5014 1.25 ug/ml + TF 2.5 pM; run 1) [2]: 99.1
- Peak (TG; MOD-5014 1.25 ug/ml + TF 5 pM; run 1) [2]: 231
- Peak (TG; MOD-5014 2.5 ug/ml + TF 0.5 pM; run 1) [2]: 10.3
- Peak (TG; MOD-5014 2.5 ug/ml + TF 0.5 pM; run 2) [2]: 11.2
- Peak (TG; MOD-5014 2.5 ug/ml + TF 1 pM; run 1) [2]: 22.6
- Peak (TG; MOD-5014 2.5 ug/ml + TF 1 pM; run 2) [2]: 30.4
- Peak (TG; MOD-5014 2.5 ug/ml + TF 2.5 pM; run 1) [2]: 93.2
- Peak (TG; MOD-5014 2.5 ug/ml + TF 2.5 pM; run 2) [2]: 105
- Peak (TG; MOD-5014 2.5 ug/ml + TF 5 pM; run 1) [2]: 241
- Peak (TG; MOD-5014 2.5 ug/ml + TF 5 pM; run 2) [2]: 245
- Peak (TG; MOD-5014 5 ug/ml + TF 0.5 pM; run 1) [2]: 13.2
- Peak (TG; MOD-5014 5 ug/ml + TF 1 pM; run 1) [2]: 28.3
- Peak (TG; MOD-5014 5 ug/ml + TF 2.5 pM; run 1) [2]: 94.2
- Peak (TG; MOD-5014 5 ug/ml + TF 5 pM; run 1) [2]: 261
- Peak (TG; MOD-5014 10 ug/ml + TF 1 pM; run 2) [2]: 32.2
- Peak (TG; MOD-5014 10 ug/ml + TF 2.5 pM; run 2) [2]: 92.2
- Peak (TG; MOD-5014 10 ug/ml + TF 5 pM; run 2) [2]: 236
- Peak; thrombin generation in severe hemophilia A pooled plasma, MOD-5014 5 ug/kg (FIG. 83), TF 0.5 pM, run #2 [2]: 14.3
- Peak; thrombin generation in severe hemophilia A pooled plasma, MOD-5014 5 ug/kg (FIG. 83), TF 1 pM, run #2 [2]: 28.6
- Peak; thrombin generation in severe hemophilia A pooled plasma, MOD-5014 5 ug/kg (FIG. 83), TF 2.5 pM, run #2 [2]: 104
- Peak; thrombin generation in severe hemophilia A pooled plasma, MOD-5014 5 ug/kg (FIG. 83), TF 5 pM, run #2 [2]: 254
- StartTail (TG; MOD-5014 1.25 ug/ml + TF 0.5 pM; run 1) [2]: 75
- StartTail (TG; MOD-5014 1.25 ug/ml + TF 1 pM; run 1) [2]: 40
- StartTail (TG; MOD-5014 1.25 ug/ml + TF 2.5 pM; run 1) [2]: 33
- StartTail (TG; MOD-5014 1.25 ug/ml + TF 5 pM; run 1) [2]: 25
- StartTail (TG; MOD-5014 2.5 ug/ml + TF 0.5 pM; run 1) [2]: 64
- StartTail (TG; MOD-5014 2.5 ug/ml + TF 0.5 pM; run 2) [2]: 75
- StartTail (TG; MOD-5014 2.5 ug/ml + TF 1 pM; run 1) [2]: 56
- StartTail (TG; MOD-5014 2.5 ug/ml + TF 2.5 pM; run 1) [2]: 34
- StartTail (TG; MOD-5014 2.5 ug/ml + TF 2.5 pM; run 2) [2]: 31
- StartTail (TG; MOD-5014 2.5 ug/ml + TF 5 pM; run 1) [2]: 23
- StartTail (TG; MOD-5014 2.5 ug/ml + TF 5 pM; run 2) [2]: 24
- StartTail (TG; MOD-5014 5 ug/ml + TF 0.5 pM; run 1) [2]: 75
- StartTail (TG; MOD-5014 5 ug/ml + TF 1 pM; run 1) [2]: 50
- StartTail (TG; MOD-5014 5 ug/ml + TF 2.5 pM; run 1) [2]: 38
- StartTail (TG; MOD-5014 10 ug/ml + TF 0.5 pM; run 2) [2]: 72
- StartTail (TG; MOD-5014 10 ug/ml + TF 2.5 pM; run 2) [2]: 34
- StartTail (TG; MOD-5014 10 ug/ml + TF 5 pM; run 2) [2]: 25
- StartTail; thrombin generation in severe hemophilia A pooled plasma, MOD-5014 5 ug/kg (FIG. 83), TF 1 pM, run #2 [2]: 69
- StartTail; thrombin generation in severe hemophilia A pooled plasma, MOD-5014 5 ug/kg (FIG. 83), TF 2.5 pM, run #2 [2]: 30
- StartTail; thrombin generation in severe hemophilia A pooled plasma, MOD-5014 5 ug/kg (FIG. 83), TF 5 pM, run #2 [2]: 23
- tt Peak (TG; MOD-5014 1.25 ug/ml + TF 0.5 pM; run 1) [2]: 22.3
- tt Peak (TG; MOD-5014 1.25 ug/ml + TF 1 pM; run 1) [2]: 10.3
- tt Peak (TG; MOD-5014 1.25 ug/ml + TF 2.5 pM; run 1) [2]: 8
- tt Peak (TG; MOD-5014 1.25 ug/ml + TF 5 pM; run 1) [2]: 4.67
- tt Peak (TG; MOD-5014 2.5 ug/ml + TF 0.5 pM; run 1) [2]: 22
- tt Peak (TG; MOD-5014 2.5 ug/ml + TF 2.5 pM; run 1) [2]: 8.35
- tt Peak (TG; MOD-5014 2.5 ug/ml + TF 2.5 pM; run 2) [2]: 8.33
- tt Peak (TG; MOD-5014 2.5 ug/ml + TF 5 pM; run 2) [2]: 4.67
- tt Peak (TG; MOD-5014 5 ug/ml + TF 0.5 pM; run 1) [2]: 21.3
- tt Peak (TG; MOD-5014 5 ug/ml + TF 1 pM; run 1) [2]: 10.7
- tt Peak (TG; MOD-5014 5 ug/ml + TF 2.5 pM; run 1) [2]: 8.33
- tt Peak (TG; MOD-5014 5 ug/ml + TF 5 pM; run 1) [2]: 4.67
- tt Peak (TG; MOD-5014 10 ug/ml + TF 1 pM; run 2) [2]: 33.7
- tt Peak (TG; MOD-5014 10 ug/ml + TF 2.5 pM; run 2) [2]: 8.67
- tt Peak; thrombin generation in severe hemophilia A pooled plasma, MOD-5014 5 ug/kg (FIG. 83), TF 0.5 pM, run #2 [2]: 21.3
- tt Peak; thrombin generation in severe hemophilia A pooled plasma, MOD-5014 5 ug/kg (FIG. 83), TF 1 pM, run #2 [2]: 12.3
- tt Peak; thrombin generation in severe hemophilia A pooled plasma, MOD-5014 5 ug/kg (FIG. 83), TF 2.5 pM, run #2 [2]: 7.67
- tt Peak; thrombin generation in severe hemophilia A pooled plasma, MOD-5014 5 ug/kg (FIG. 83), TF 5 pM, run #2 [2]: 4.67
B1: MOD-5014 (FVIIa-CTP3; activated Factor VII-CTP-CTP-CTP), P08709 61-212 (enzyme)
chain 1: ANAFLEELRPGSLERECKEEQCSFEEAREIFKDAERTKLFWISYSDGDQCASSPCQNGGSCKDQLQSYICFCLPAFEGRNCETHKDDQLICVNENGGCEQYCSDHTGTKRSCRCHEGYSLLADGVSCTPTVEYPCGKIPILEKRNASKPQGR
chain 2: IVGGKVCPKGECPWQVLLLVNGAQLCGGTLINTIWVVSAAHCFDKIKNWRNLIAVLGEHDLSEHDGDEQSRRVAQVIIPSTYVPGTTNHDIALLRLHQPVVLTDHVVPLCLPERTFSERTLAFVRFSLVSGWGQLLDRGATALELMVLNVPRLMTQDCLQQSRKVGDSPNITEYMFCAGYSDGSKDSCKGDSGGPHATHYRGTWYLTGIVSWGQGCATVGHFGVYTRVSQYIEWLQKLMRSEPRPGVLLRAPFPSSSSKAPPPSLPSPSRLPGPSDTPILPQSSSSKAPPPSLPSPSRLPGPSDTPILPQSSSSKAPPPSLPSPSRLPGPSDTPILPQ
modifications: here or on the partner: CTP units may be O-glycosylated (sites not given); gamma-carboxyglutamic acid (Gla) residues in the N-terminal region (positions not given)
